# According to US10941182 (Amgen, dated 2021):
# Starred links: 1 amine or outer side, 2 acyl side, 3 side chain; linkers in the order of their positions; H or OH if unused. Non-standard residues stand in square brackets, D forms with d. *: point of attachment. Bh4ClF = β-4-chloro-L-homophenylalanine, O=C(C[C@H](Cc1ccc(Cl)cc1)N[*:1])[*:2]; AC4Abu = α-carboxy-4-aminobutyric acid, O=C(C(CCN[*:1])C(=O)[*:3])[*:2]; Oic = O=C(O)[C@@H]1C[C@@H]2CCCC[C@@H]2N1; Phe(4-Cl) = N[C@@H](Cc1ccc(Cl)cc1)C(=O)O; γGlu = O=C(O)[C@H](CCC(=O)[*:2])N[*:1]; 1Nal = N[C@@H](Cc1cccc2ccccc12)C(=O)O; 2Nal = N[C@@H](Cc1ccc2ccccc2c1)C(=O)O; d2Nal = N[C@H](Cc1ccc2ccccc2c1)C(=O)O; Gly(cPent) = N[C@H](C(=O)O)C1CCCC1; NMeR = CN[C@@H](CCCNC(=N)N)C(=O)O; Tridecanoyl = CCCCCCCCCCCCC(=O)*; hArg = N=C(N)NCCCC[C@H](N)C(=O)O; Cha = N[C@@H](CC1CCCCC1)C(=O)O; Aic = NC1(C(=O)O)Cc2ccccc2C1; Tle = CC(C)(C)[C@H](N)C(=O)O; Nle = CCCC[C@H](N)C(=O)O; Deg = CCC(N)(CC)C(=O)O; AEEA = NCCOCCOCC(=O)O
# T1: human APJ receptor (human, UniProt P35414 1-380)
# T1 sequence (looked up): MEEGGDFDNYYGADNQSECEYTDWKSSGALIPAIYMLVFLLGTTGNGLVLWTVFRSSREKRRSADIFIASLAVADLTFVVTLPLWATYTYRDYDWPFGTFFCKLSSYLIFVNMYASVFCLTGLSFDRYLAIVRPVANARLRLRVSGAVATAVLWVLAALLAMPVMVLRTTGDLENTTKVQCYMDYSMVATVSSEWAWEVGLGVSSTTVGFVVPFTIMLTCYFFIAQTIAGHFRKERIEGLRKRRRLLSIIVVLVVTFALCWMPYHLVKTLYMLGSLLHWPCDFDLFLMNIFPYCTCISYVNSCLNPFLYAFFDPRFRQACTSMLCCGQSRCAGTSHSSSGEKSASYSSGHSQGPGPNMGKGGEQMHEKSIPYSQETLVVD
# T2: rat APJ receptor (rat, UniProt Q9JHG3 1-377)
# T2 sequence (looked up): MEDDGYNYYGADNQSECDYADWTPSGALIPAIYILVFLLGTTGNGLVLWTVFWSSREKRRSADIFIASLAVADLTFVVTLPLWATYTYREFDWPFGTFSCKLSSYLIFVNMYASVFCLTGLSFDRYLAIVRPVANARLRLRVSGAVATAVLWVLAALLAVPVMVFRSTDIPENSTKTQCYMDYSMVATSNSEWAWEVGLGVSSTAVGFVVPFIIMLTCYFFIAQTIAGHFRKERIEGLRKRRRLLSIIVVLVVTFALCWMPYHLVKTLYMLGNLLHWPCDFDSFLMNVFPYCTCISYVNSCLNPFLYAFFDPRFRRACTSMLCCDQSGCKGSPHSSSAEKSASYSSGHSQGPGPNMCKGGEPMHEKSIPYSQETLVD
# B1: Apelin polypeptide SEQ ID NO: 372 (peptide)
# peptide: Tridecanoyl-[γGlu][AEEA][AEEA][dQ][hArg]P[dR][Cha]SAKG[Oic][Nle]P[Phe(4-Cl)]-OH
# SMILES: CCCCCCCCCCCCC(=O)N[C@@H](CCC(=O)NCCOCCOCC(=O)NCCOCCOCC(=O)N[C@H](CCC(N)=O)C(=O)N[C@@H](CCCCNC(=N)N)C(=O)N1CCC[C@H]1C(=O)N[C@H](CCCNC(=N)N)C(=O)N[C@@H](CC1CCCCC1)C(=O)N[C@@H](CO)C(=O)N[C@@H](C)C(=O)N[C@@H](CCCCN)C(=O)NCC(=O)N1[C@H](C(=O)N[C@@H](CCCC)C(=O)N2CCC[C@H]2C(=O)N[C@@H](Cc2ccc(Cl)cc2)C(=O)O)C[C@@H]2CCCC[C@@H]21)C(=O)O
# B2: Apelin polypeptide SEQ ID NO: 406 (peptide)
# peptide: Tridecanoyl-[AC4Abu][AEEA][AEEA][dQ][hArg]P[dR][Cha]SHKG[Oic][Nle]P[Gly(cPent)]-OH
# SMILES: CCCCCCCCCCCCC(=O)NCCC(C(=O)O)C(=O)NCCOCCOCC(=O)NCCOCCOCC(=O)N[C@H](CCC(N)=O)C(=O)N[C@@H](CCCCNC(=N)N)C(=O)N1CCC[C@H]1C(=O)N[C@H](CCCNC(=N)N)C(=O)N[C@@H](CC1CCCCC1)C(=O)N[C@@H](CO)C(=O)N[C@@H](Cc1c[nH]cn1)C(=O)N[C@@H](CCCCN)C(=O)NCC(=O)N1[C@H](C(=O)N[C@@H](CCCC)C(=O)N2CCC[C@H]2C(=O)N[C@H](C(=O)O)C2CCCC2)C[C@@H]2CCCC[C@@H]21
# B3: Apelin polypeptide SEQ ID NO: 478 (peptide)
# peptide: Tridecanoyl-[γGlu][AEEA][AEEA][dQ][hArg]P[NMeR][Cha]SHKG[Oic][Nle]P[Phe(4-Cl)]-OH
# SMILES: CCCCCCCCCCCCC(=O)N[C@@H](CCC(=O)NCCOCCOCC(=O)NCCOCCOCC(=O)N[C@H](CCC(N)=O)C(=O)N[C@@H](CCCCNC(=N)N)C(=O)N1CCC[C@H]1C(=O)N(C)[C@@H](CCCNC(=N)N)C(=O)N[C@@H](CC1CCCCC1)C(=O)N[C@@H](CO)C(=O)N[C@@H](Cc1c[nH]cn1)C(=O)N[C@@H](CCCCN)C(=O)NCC(=O)N1[C@H](C(=O)N[C@@H](CCCC)C(=O)N2CCC[C@H]2C(=O)N[C@@H](Cc2ccc(Cl)cc2)C(=O)O)C[C@@H]2CCCC[C@@H]21)C(=O)O
# B4: Apelin polypeptide SEQ ID NO: 354 (peptide)
# peptide: Tridecanoyl-[γGlu][AEEA][AEEA]Q[hArg]P[NMeR]LSHKG[Oic][Nle]P[Phe(4-Cl)]-OH
# SMILES: CCCCCCCCCCCCC(=O)N[C@@H](CCC(=O)NCCOCCOCC(=O)NCCOCCOCC(=O)N[C@@H](CCC(N)=O)C(=O)N[C@@H](CCCCNC(=N)N)C(=O)N1CCC[C@H]1C(=O)N(C)[C@@H](CCCNC(=N)N)C(=O)N[C@@H](CC(C)C)C(=O)N[C@@H](CO)C(=O)N[C@@H](Cc1c[nH]cn1)C(=O)N[C@@H](CCCCN)C(=O)NCC(=O)N1[C@H](C(=O)N[C@@H](CCCC)C(=O)N2CCC[C@H]2C(=O)N[C@@H](Cc2ccc(Cl)cc2)C(=O)O)C[C@@H]2CCCC[C@@H]21)C(=O)O
# B5: Apelin polypeptide SEQ ID NO: 407 (peptide)
# peptide: Tridecanoyl-[AC4Abu][AEEA][AEEA][dQ][hArg]P[dR][Cha]SHKG[Oic][Nle]P[d2Nal]-OH
# SMILES: CCCCCCCCCCCCC(=O)NCCC(C(=O)O)C(=O)NCCOCCOCC(=O)NCCOCCOCC(=O)N[C@H](CCC(N)=O)C(=O)N[C@@H](CCCCNC(=N)N)C(=O)N1CCC[C@H]1C(=O)N[C@H](CCCNC(=N)N)C(=O)N[C@@H](CC1CCCCC1)C(=O)N[C@@H](CO)C(=O)N[C@@H](Cc1c[nH]cn1)C(=O)N[C@@H](CCCCN)C(=O)NCC(=O)N1[C@H](C(=O)N[C@@H](CCCC)C(=O)N2CCC[C@H]2C(=O)N[C@H](Cc2ccc3ccccc3c2)C(=O)O)C[C@@H]2CCCC[C@@H]21
# B6: Apelin polypeptide SEQ ID NO: 451 (peptide)
# peptide: Tridecanoyl-[γGlu][AEEA][AEEA][dQ][hArg]P[dR][Cha]S[Deg]KG[Oic][Nle]P[Phe(4-Cl)]-OH
# SMILES: CCCCCCCCCCCCC(=O)N[C@@H](CCC(=O)NCCOCCOCC(=O)NCCOCCOCC(=O)N[C@H](CCC(N)=O)C(=O)N[C@@H](CCCCNC(=N)N)C(=O)N1CCC[C@H]1C(=O)N[C@H](CCCNC(=N)N)C(=O)N[C@@H](CC1CCCCC1)C(=O)N[C@@H](CO)C(=O)NC(CC)(CC)C(=O)N[C@@H](CCCCN)C(=O)NCC(=O)N1[C@H](C(=O)N[C@@H](CCCC)C(=O)N2CCC[C@H]2C(=O)N[C@@H](Cc2ccc(Cl)cc2)C(=O)O)C[C@@H]2CCCC[C@@H]21)C(=O)O
# B7: Apelin polypeptide SEQ ID NO: 452 (peptide)
# peptide: Tridecanoyl-[γGlu][AEEA][AEEA][dQ][hArg]P[dR][Cha]S[Tle]KG[Oic][Nle]P[Phe(4-Cl)]-OH
# SMILES: CCCCCCCCCCCCC(=O)N[C@@H](CCC(=O)NCCOCCOCC(=O)NCCOCCOCC(=O)N[C@H](CCC(N)=O)C(=O)N[C@@H](CCCCNC(=N)N)C(=O)N1CCC[C@H]1C(=O)N[C@H](CCCNC(=N)N)C(=O)N[C@@H](CC1CCCCC1)C(=O)N[C@@H](CO)C(=O)N[C@H](C(=O)N[C@@H](CCCCN)C(=O)NCC(=O)N1[C@H](C(=O)N[C@@H](CCCC)C(=O)N2CCC[C@H]2C(=O)N[C@@H](Cc2ccc(Cl)cc2)C(=O)O)C[C@@H]2CCCC[C@@H]21)C(C)(C)C)C(=O)O
# Biological target: T1, human APJ receptor
# Assay: cell-based or functional assay
row,Binder,EC50 Human APJ Receptor (GTPγS assay) [nM]
1,B1,2.84
2,B2,33.6
3,B3,0.496
4,Tridecanoyl-[γGlu][AEEA][AEEA][dQ][hArg]P[dR][Cha]SHKG[Oic][Nle]P[2Nal]-OH [Apelin polypeptide SEQ ID NO: 368],32.3
5,Tridecanoyl-[γGlu][AEEA][AEEA]Q[hArg]P[dR][Cha]SHKG[Oic][Nle]P[D‑4ClF]-OH [Apelin polypeptide SEQ ID NO: 364],6
6,Tridecanoyl-[γGlu][AEEA][AEEA][dQ][hArg]P[dR][Cha]SHKG[Oic][Nle]P[Aic]-OH [Apelin polypeptide SEQ ID NO: 366],17.1
7,XXXQRPRLSHKGPXPF ({TDA}[AC4Abu][Aeea][Aeea]Q[hArg]P[NMeArg]LSHKGP[Nle]P[4-Cl-F]{COOH}) [Apelin polypeptide SEQ ID NO: 353],0.095
8,Tridecanoyl-[γGlu][AEEA][AEEA][dQ][hArg]P[dR][Cha]SHKG[Oic][Nle]P[1Nal]-OH [Apelin polypeptide SEQ ID NO: 367],26.3
9,B4,0.279
10,B5,124
11,Tridecanoyl-[γGlu][AEEA][AEEA][dQ][hArg]P[dR][Cha]SHKG[Oic][Nle]P[Bh4ClF]-OH [Apelin polypeptide SEQ ID NO: 370],12.9
12,Tridecanoyl-[γGlu][AEEA][AEEA][dQ][hArg]P[dR][Cha]SHKG[Oic][Nle]P[D‑4IF]-OH [Apelin polypeptide SEQ ID NO: 369],25.9
13,Tridecanoyl-[γGlu][AEEA][AEEA][dQ][hArg]P[dR][Cha]SHKG[Oic][Nle]P[Oic]-OH [Apelin polypeptide SEQ ID NO: 365],23
14,B6,11.2
15,Tridecanoyl-[γGlu][AEEA][AEEA][dQ][hArg]P[dR][Cha]SHKG[Oic][Nle]P[Phe(4-Cl)]-OH [Apelin polypeptide SEQ ID NO: 363],3.27
16,Tridecanoyl-[γGlu][AEEA][AEEA][dQ][hArg]P[dR][Cha]SHK[Tle][Oic][Nle]P[Phe(4-Cl)]-OH [Apelin polypeptide SEQ ID NO: 371],6.92
17,B7,10.4

# Biological target: T2, rat APJ receptor
# Assay: cell-based or functional assay
row,Binder,EC50 Rat APJ Receptor (GTPγS assay) [nM]
1,B1,1.5
2,B2,73
3,B3,0.807
4,Tridecanoyl-[γGlu][AEEA][AEEA][dQ][hArg]P[dR][Cha]SHKG[Oic][Nle]P[2Nal]-OH [Apelin polypeptide SEQ ID NO: 368],31.4
5,Tridecanoyl-[γGlu][AEEA][AEEA]Q[hArg]P[dR][Cha]SHKG[Oic][Nle]P[D‑4ClF]-OH [Apelin polypeptide SEQ ID NO: 364],20.4
6,Tridecanoyl-[γGlu][AEEA][AEEA][dQ][hArg]P[dR][Cha]SHKG[Oic][Nle]P[Aic]-OH [Apelin polypeptide SEQ ID NO: 366],23.6
7,XXXQRPRLSHKGPXPF ({TDA}[AC4Abu][Aeea][Aeea]Q[hArg]P[NMeArg]LSHKGP[Nle]P[4-Cl-F]{COOH}) [Apelin polypeptide SEQ ID NO: 353],0.275
8,Tridecanoyl-[γGlu][AEEA][AEEA][dQ][hArg]P[dR][Cha]SHKG[Oic][Nle]P[1Nal]-OH [Apelin polypeptide SEQ ID NO: 367],67.5
9,B4,0.361
10,B5,216
11,Tridecanoyl-[γGlu][AEEA][AEEA][dQ][hArg]P[dR][Cha]SHKG[Oic][Nle]P[Bh4ClF]-OH [Apelin polypeptide SEQ ID NO: 370],23.7
12,Tridecanoyl-[γGlu][AEEA][AEEA][dQ][hArg]P[dR][Cha]SHKG[Oic][Nle]P[D‑4IF]-OH [Apelin polypeptide SEQ ID NO: 369],42
13,Tridecanoyl-[γGlu][AEEA][AEEA][dQ][hArg]P[dR][Cha]SHKG[Oic][Nle]P[Oic]-OH [Apelin polypeptide SEQ ID NO: 365],20.7
14,B6,31.6
15,Tridecanoyl-[γGlu][AEEA][AEEA][dQ][hArg]P[dR][Cha]SHKG[Oic][Nle]P[Phe(4-Cl)]-OH [Apelin polypeptide SEQ ID NO: 363],3.96
16,Tridecanoyl-[γGlu][AEEA][AEEA][dQ][hArg]P[dR][Cha]SHK[Tle][Oic][Nle]P[Phe(4-Cl)]-OH [Apelin polypeptide SEQ ID NO: 371],4.67
17,B7,25
